Patent publication US20240409645A1 (DUALYX, published 2024)
Positions count from the first letter of the chain named.

T1: human IL-2Rβ (human, UniProt P14784 27-240, limits assumed)
T1 construct: recombinant protein, coated or immobilised; also called hu IL-2R; IL-2R beta
T1 sequence: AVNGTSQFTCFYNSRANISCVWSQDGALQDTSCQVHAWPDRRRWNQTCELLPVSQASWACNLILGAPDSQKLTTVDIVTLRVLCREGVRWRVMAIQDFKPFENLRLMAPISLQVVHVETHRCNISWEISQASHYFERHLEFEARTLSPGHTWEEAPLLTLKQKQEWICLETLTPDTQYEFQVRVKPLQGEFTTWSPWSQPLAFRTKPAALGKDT

T2: human IL-2Rβ (human, UniProt P14784 27-240, limits assumed)
T2 construct: Recombinant protein, coated (ELISA) or immobilised on CM5 (SPR); also called hu IL-2R; interleukin 2 receptor β-chain
T2 sequence: T1 sequence

B1: FJ1427_P035MP02C09 (VHH)
VHH: QVQLQESGGGLVQAGGSLRLSCVASGSVSSINGMAWYRQGADNQRVLVAAISRVGNTAYGDSVKGRFTISRQNARNTVYLQMNSLKPEDTAVYYCNADSWGGDDYWGQGTQVTVSS
notes: soluble VHH in periplasmic extract; also called 17-MP02C09; clone nr
B2: FJ1427_P035MP02H08 (VHH)
VHH: EVQLVESGGGLVQAGDSLRISCAASGRIFSNYAMGWFRQAPGKETEFVAGITHLTSTTHYADSVKGRFTISRDNAKNTMHLQMNNLKPEDTALYYCAADRNIKITADWSYWGQGTQVTVAS
notes: soluble VHH in periplasmic extract; also called clone nr; 160
B3: FJ1427 P035MP02D11 (VHH)
VHH: B2 VHH with E1Q, V5Q
notes: soluble VHH in periplasmic extract; also called clone nr; 180
B4: FJ1427 P035MP02C08 (VHH)
VHH: EVQLVESGGGLVQAGGSLRLSCAASGSTFSRQPMYWFRQAPGKEREFVAAITWSGRGTLYADSVEGRFTISRDNAKNTVYLQMNSLRPDDTAAYYCAAGPYGDAAYRHGRIDSWGQGTQVTVSS
notes: soluble VHH in periplasmic extract; also called clone nr
B5: FJ1427_P035MP02D12 (VHH)
VHH: QVQLVESGGGLVQAGGSLTLSCAASGGAFSSDAKAWFRQAPGKEREFVAAITWAGRGTDYADSVKGRFTITRDNAKATVHLQMNSLKPEDTAVYYCALNPRGVIGPAFRNSNHYTYWGQGTQVTVSS
notes: as for B4
B6: FJ1427 P035MP02D02 (VHH)
VHH: QVQLVESGGGLVQVGGSLSVSCAASGRSFDSITMAYFRQAPGNEREFIAGINFSGSRTAYGDSVKGRFTISRDNAKNTVFLQMNSLNPEDTAVYYCAASPRGFYGPGHALYDYWGQGTQVTVSS
notes: as for B4
B7: FJ1427 P035MP03C10 (VHH)
VHH: QVQLVESGGGLVQAGGSLRLSCAASGRTFSTTEMGWFRQAPGKEREFVAAITWTGRGTMYAESVEGRFTISRENAKNMVYLQMNSLKPEDTAIYYCAAARRGRAAVRSEGGYDFWGQGTQVTVSS
notes: as for B4
B8: FJ1427_P035MP02H11 (VHH)
VHH: B7 VHH with Q1E, T122A
notes: as for B4
B9: FJ1427 P035MP02B12 (VHH)
VHH: QVQLVESGGGLVQAGGSLRLSCAASGRADSNAIMAWFRQAPGKEREFIVAVTYSGMPTYQDDSVQGRFTASRDNAKNTVYLQMNSLKPEDTAVYYCAARMYSASTYYGDYDYWGQGTQVTVSS
notes: as for B4
B10: FJ1427_P035MP02C12 (VHH)
VHH: EVQLVESGGGSVQAGGSLRLSCAASGRTFSDYTMGWFRQAPGKEREFVVAITGTGHTTDMPDSVEGRFTISRDNAKNTIYLDMKNLKPGDTAVYYCASARGLPVTPLGDIIYWGEGTLVTVSS
notes: as for B4
B11: FJ1427_P035MP02F08 (VHH)
VHH: QVQLVESGGGLVQAGGSLRLSCAASGSIFSLNTMGWFRQAPGKEREFVAAISRSGGSATYGDSVKGRFTISTNNAKTTVYLQMNSLKPDDTAVYSCAASAAVGWTTRWSTIDFDSWGQGTQVTVSS
notes: as for B4
B12: FJ1427 P035MP06E05 (VHH)
VHH: QVQLVESGGELVQGGASLRLSCAASGRTFSNANMAWFRQAPEKEREFVALITWSSGSTLYADSVKGRFTISRDNARKMVYLQMNSLKPEDTAVYYCAADGPPYSGTYYRYDTYDYWGQGTQVTVSS
notes: soluble VHH in periplasmic extract; also called 24-MP06E05; clone nr; 517
B13: FJ1427_P035MP02F11 (VHH)
VHH: EVQLVESGGGLVQAGGSLRLSCAASGRDFSSYAMGWFRQAPGKEREFVVAITWTKRSTDFPDSVKGRFTISRDNAKNTVYLDMNSLKPEDTAVYYCASARGLPVTPLGDIIYWGEGTLVTVSS
notes: as for B4
B14: FJ1427_P035MP03F10 (VHH)
VHH: B13 VHH
notes: soluble VHH in periplasmic extract; also called 20-MP03F10; clone nr; 270
B15: FJ1427 P035MP03F07 (VHH)
VHH: B13 VHH with E1Q, D28T, A33V, W53G, K55R, S57T, F60W, K76Q, T105P, Y112H
notes: as for B4
B16: FJ1427_P035MP02G11 (VHH)
VHH: B13 VHH with E1Q, V2L
notes: as for B4
B17: FJ1427_P035MP03F08 (VHH)
VHH: EVQLVESGGGLVQTGGSLRLSCAASGGTFSRDAMAWFRQVPGKEREFVALISWSGATTNYADSVKGRFAISRDNGKNTVYLQMNRLKPADTAIYYCAADRRPMGSRSYFEPTEYDDWGQGTQVTVSS
notes: soluble VHH in periplasmic extract; also called 19-MP03F08; clone nr
B18: FJ1427_P035MP03F12 (VHH)
VHH: EVQLVESGGGLVQAGGSLRLSCAASGSIFSINAMAWFRQVPGMERELVAAISRDGGASVYRDSVKGRFTISRDNSKNTVYLQMNTLKPEDTAIYVCAATRAIGWTARWITTDFDFWGQGTQVTVSS
notes: soluble VHH in periplasmic extract; also called 22-MP03F12; clone nr
B19: FJ1427 P035MP02A10 (VHH)
VHH: QLQLVESGGGLVQTGTSLRLSCAASGHTSRINAMGWFRQFPGKEREFVAAISRNGGSTVYVDSVKGRFTISRDNAKSTVYLQMNSLKPEDTAVYYCTATDAVGWTTRWMTADFGFWGQGTQVTVSS
notes: as for B4
B20: FJ1427_P035MP02A01 (VHH)
VHH: QVQLVESGGGLVQTGGSLRLSCVVSGSHFISDVMGWYRQVPGKQRELVADMADGGSAKYGDSVKGRFTILRDSVKNTVYLQMSSLNPEDTGVYYCKAGLWITGRHSDYWGQGTQVTVSS
notes: soluble VHH in periplasmic extract; also called clone nr; 97
B21: FJ1427 P035MP02G02 (VHH)
VHH: B20 VHH with T14P, V23A, V24A, A57V, Y79T, S106F, T113I, S118T
notes: as for B4
B22: FJ1427_P035MP02B02 (VHH)
VHH: B20 VHH with Q1E, G10T, L70V, T102K, S118T
notes: as for B4
B23: FJ1427_P035MP02G01 (VHH)
VHH: B20 VHH with V23A, H28R, G60A, T68S, V74A, N86K, V92I, T102A
notes: as for B4
B24: FJ1427 P035MP02E11 (VHH)
VHH: QVQLQESGGGLVQAGGSLRLSCAASGRTFSNYVMAWFRQAPGKEREFVGAITQTGRGTFYADSVEGRFTISRINDKNTVYLQMNSLKPEDTAVYYCSAPRSGRAGTRNQMDYEYWGQGTQVTVSS
notes: as for B4
B25: FJ1427_P035MP03C03 (VHH)
VHH: QVQLVESGGGLVQPGGSLRLSCAISGGTLDSYGIGWVRQAPGKQREGVSCMSRSDDRTYYADSVKGRFTISKDSAKNTVYLQMTSLKPEDTAVYYCAAVDAYGCSLVQPTTYDFWGLGTQVTVSS
notes: soluble VHH in periplasmic extract; also called 18-MP03C03; clone nr
B26: FJ1427 P035MP02A12 (VHH)
VHH: QVQLQESGGGLVQAGGSLRLSCAVSGRSFRNYVMGWFRQAPGREREIVAGITQFTSTTYYDDSVKGRFTISRDNAKNTVYLQMNSLKPEDTALYYCAADRSIKMTADWAYWGQGTQVTVSS
notes: as for B4
B27: FJ1427_P035MP02H01 (VHH)
VHH: QVQLVESGGGLVQPGGSLGLSCAASGFTFDNYAMSWVRQAPGKGLEWVSSITGAGRGTHYADSVKGRFTISRDNAKNTLYLQMNSLKPEDTAVYYCAKYSSSTYYPPTPARGTDYRGPGTQVTVSS
notes: as for B4
B28: FJ1427_P035MP06F05 (VHH)
VHH: QVQLVESGGGLVQTGDSLRLSCAASGRSLDTTYIAWFRQAPGKERDFLAYISPRFSHTWYADSVKGRFTISRNIAKRTVDLEMNSLEPEDTAVYYCAAREHSGSTAWEHYDHWGQGTQVTVSS
notes: soluble VHH in periplasmic extract; also called 25-MP06F05; clone nr
B29: FJ1427 P035MP02D10 (VHH)
VHH: EVQLVESGGGLVQAGGSLRLSCAASGRTFSSDAKAWFRQAPGKEREFVAAITWAGRGTDYADSVKDRFTITRDNAKNMVYLQMSSLKPEDTAVYYCALNPTGVIGPGFRNSNRYDYWGQGTQVTVAS
notes: as for B4

Legend:
[1] = target: T1, human IL-2Rβ; test: SPR, P.E. off-rate
Summary of the method: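 First, the IL-2R protein is immobilised via amine coupling in acetate buffer to roughly 2500 RU on a CM5 sensor chip. Next, the VHH extract is loaded at 30 uL/min. Finally, dissociation is recorded for 120s.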

[2] = target: T1, human IL-2Rβ; test: P.E. ELISA, coated protein
Summary of the method: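 Human or mouse IL-2Rα, IL-2Rβ or IL-2Rγ protein coated directly overnight at 4° C, blocked with 4% Marvel/PBS for 1 hour.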

[3] = target: T2, human IL-2Rβ; test: SPR (Biacore), P.E. off-rate ranking
[4] = target: T2, human IL-2Rβ; test: P.E. binding ELISA on coated protein
Procedure: In a binding ELISA, human or mouse IL-2Rα, IL-2Rβ and IL-2Rγ proteins were coated directly on maxisorp microtiter plates overnight at 4° C. Free binding sites were blocked using 4% Marvel in PBS for 1 hour. Next, 1:5 dilution of P.E. in 1% Marvel/PBS were added to wells and incubated for 1 hour. […] Binding specificity was determined based on O.D. at 450 nm values compared to negative controls.

Row | koff [1] [s⁻¹] | P.E. binding ELISA OD [2] [OD450 nm] | koff [3] [s⁻¹] | P.E. binding ELISA OD [4] [OD450 nm] | Binder
1 | 0.000848 | 1.21 |  |  | B1
2 | 0.000731 | 0.885 |  |  | B2
3 | 0.000833 | 0.463 |  |  | B3
4 | 0.00333 | 0.254 |  |  | B4
5 |  |  | 0.00144 | 0.658 | B5
6 | 0.000529 | 0.831 |  |  | B6
7 |  |  | 0.000439 | 0.596 | B7
8 |  |  | 0.000773 | 0.795 | B8
9 |  |  | 0.000716 | 1.25 | B9
10 |  |  | 0.00106 | 0.616 | B10
11 | 0.00153 | 0.614 |  |  | B11
12 | 0.000471 | 0.355 |  |  | B12
13 |  |  | 0.000686 | 0.33 | B13
14 | 0.000595 | 0.497 |  |  | B14
15 |  |  | 0.00126 | 0.156 | B15
16 |  |  | 0.000708 | 0.429 | B16
17 | 0.000296 | 0.245 |  |  | B17
18 | 0.000419 | 0.781 |  |  | B18
19 | 0.00226 | 0.359 |  |  | B19
20 | 0.00023 | 0.311 |  |  | B20
21 | 0.000112 | 0.177 |  |  | B21
22 | 0.000164 | 0.343 |  |  | B22
23 | 0.000368 | 0.169 |  |  | B23
24 | 0.00188 | 0.529 |  |  | B24
25 | 0.000594 | 0.405 |  |  | B25
26 |  |  | 0.00451 | 0.182 | B26
27 | 0.00106 | 0.487 |  |  | B27
28 | 0.000836 | 0.159 |  |  | B28
29 | 0.00109 | 0.557 |  |  | B29
